# Measurements published in PMC2748697.
# Biological target: tubulin (bovine, Cytoskeleton) (bovine) (UniProt Q6B856)
substance,measurement,value
GST-tagged full-length Capzb2 (1–271) (from UniProt P47757-2 1-272) (natural protein),"reduction of the extent of tubulin polymerization at 0.5, 1 and 10 µM Capzb2 (8%, 16%, 35%; none at 0.1 µM)",35%
